B1: FAM9B (parent)
chain: EDLTAKRKRMKMDKTCSKTKNKSK
B2: GMCL1 (parent)
chain: FCYCAGSHKRKRSSGSFCYCHPDS

Variants of: B1
Assay: protein stability index of a GFP-peptide fusion (GPS, HEK-293T) (PSI 1-6); higher = more stable
Settings: c terminus: a fixed tail appended
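Note: lentivirally expressed fusions sorted by FACS into six bins by GFP to DsRed ratio, PSI derived from sequencing read proportions per bin multiplied by bin number.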

Variant	protein stability index
EDLTAKRKRMKMDKTCSKTKNVSK [K22V]	4.39
EDLTAKRKRMKMDKTCSKTKNFSK [K22F]	4.63
EDLTAKRKRMKMDKTCSKTKNQSK [K22Q]	4.74
EDLTAKRKRMKMDKTCSKTKNMSK [K22M]	4.47
EDLTAKRKRMKMDKTCSKTKNDSK [K22D]	5.24
EDLTAKRKRMKMDKTCSKTKNHSK [K22H]	5
EDLTAKRKRMKMDKTCSKTKNPSK [K22P]	5.58
EDLTAKRKRMKMDKTCSKTKNCSK [K22C]	4.92
EDLTAKRKRMKMDKTCSKTKNYSK [K22Y]	5.07
EDLTAKRKRMKMDKTCSKTKNESK [K22E]	4.96
EDLTAKRKRMKMDKTCSKTKNLSK [K22L]	4.39
EDLTAKRKRMKMDKTCSKTKNISK [K22I]	3.59
EDLTAKRKRMKMDKTCSKTKNGSK [K22G]	4.78
EDLTAKRKRMKMDKTCSKTKNWSK [K22W]	4.19
EDLTAKRKRMKMDKTCSKTKNRSK [K22R]	5.31
EDLTAKRKRMKMDKTCSKTKNASK [K22A]	5.4
EDLTAKRKRMKMDKTCSKTKNTSK [K22T]	5.11
EDLTAKRKRMKMDKTCSKTKNNSK [K22N]	4.83
EDLTAKRKRMKMDKTCSKTKNKSQ [K24Q]	4.59
EDLTAKRKRMKMDKTCSKTKNKSW [K24W]	3.98
EDLTAKRKRMKMDKTCSKTKNKST [K24T]	5.15
EDLTAKRKRMKMDKTCSKTKNKSP [K24P]	4.93
EDLTAKRKRMKMDKTCSKTKNKSD [K24D]	4.97
EDLTAKRKRMKMDKTCSKTKNKSR [K24R]	5.06
EDLTAKRKRMKMDKTCSKTKNKSC [K24C]	5.2

Variant	protein stability index
EDLTAKRKRMKMDKTCSKTKNKSV [K24V]	4.62
EDLTAKRKRMKMDKTCSKTKNKSF [K24F]	4.83
EDLTAKRKRMKMDKTCSKTKNKSS [K24S]	4.43
EDLTAKRKRMKMDKTCSKTKNKSE [K24E]	5.11
EDLTAKRKRMKMDKTCSKTKNKSA [K24A]	5.14
EDLTAKRKRMKMDKTCSKTKNKSG [K24G]	4.19
EDLTAKRKRMKMDKTCSKTKNKSL [K24L]	4.01
EDLTAKRKRMKMDKTCSKTKNKSI [K24I]	4.68
EDLTAKRKRMKMDKTCSKTKNKSN [K24N]	5
EDLTAKRKRMKMDKTCSKTKNKSM [K24M]	4.96
EDLTAKRKRMKMDKTCSKTKNKSH [K24H]	4.71
EDLTAKRKRMKMDKTCSKTKLKSK [N21L]	4.93
EDLTAKRKRMKMDKTCSKTKKKSK [N21K]	5.33
EDLTAKRKRMKMDKTCSKTKGKSK [N21G]	4.78
EDLTAKRKRMKMDKTCSKTKDKSK [N21D]	5.17
EDLTAKRKRMKMDKTCSKTKHKSK [N21H]	5
EDLTAKRKRMKMDKTCSKTKYKSK [N21Y]	4.77
EDLTAKRKRMKMDKTCSKTKCKSK [N21C]	4.95
EDLTAKRKRMKMDKTCSKTKFKSK [N21F]	4.57
EDLTAKRKRMKMDKTCSKTKAKSK [N21A]	5.23
EDLTAKRKRMKMDKTCSKTKEKSK [N21E]	5.44
EDLTAKRKRMKMDKTCSKTKVKSK [N21V]	4.11
EDLTAKRKRMKMDKTCSKTKIKSK [N21I]	4.7
EDLTAKRKRMKMDKTCSKTKQKSK [N21Q]	5.51
EDLTAKRKRMKMDKTCSKTKWKSK [N21W]	4.4

Variant	protein stability index
EDLTAKRKRMKMDKTCSKTKSKSK [N21S]	5.46
EDLTAKRKRMKMDKTCSKTKTKSK [N21T]	5.42
EDLTAKRKRMKMDKTCSKTKMKSK [N21M]	4.81
EDLTAKRKRMKMDKTCSKTKRKSK [N21R]	5.25
EDLTAKRKRMKMDKTCSKTKPKSK [N21P]	4.94
EDLTAKRKRMKMDKTCSKTHNKSK [K20H]	5.24
EDLTAKRKRMKMDKTCSKTMNKSK [K20M]	4.57
EDLTAKRKRMKMDKTCSKTQNKSK [K20Q]	5.15
EDLTAKRKRMKMDKTCSKTGNKSK [K20G]	5.06
EDLTAKRKRMKMDKTCSKTDNKSK [K20D]	4.9
EDLTAKRKRMKMDKTCSKTSNKSK [K20S]	4.84
EDLTAKRKRMKMDKTCSKTWNKSK [K20W]	4.47
EDLTAKRKRMKMDKTCSKTTNKSK [K20T]	5.25
EDLTAKRKRMKMDKTCSKTFNKSK [K20F]	4.46
EDLTAKRKRMKMDKTCSKTYNKSK [K20Y]	4.43
EDLTAKRKRMKMDKTCSKTCNKSK [K20C]	4.57
EDLTAKRKRMKMDKTCSKTVNKSK [K20V]	4.32
EDLTAKRKRMKMDKTCSKTLNKSK [K20L]	4.96
EDLTAKRKRMKMDKTCSKTPNKSK [K20P]	4.75
EDLTAKRKRMKMDKTCSKTNNKSK [K20N]	4.87
EDLTAKRKRMKMDKTCSKTANKSK [K20A]	4.94
EDLTAKRKRMKMDKTCSKTENKSK [K20E]	5.07
EDLTAKRKRMKMDKTCSKTRNKSK [K20R]	4.76
EDLTAKRKRMKMDKTCSKTINKSK [K20I]	4.75
EDLTAKRKRMKMDKTCSKFKNKSK [T19F]	5.29

Variant	protein stability index
EDLTAKRKRMKMDKTCSKWKNKSK [T19W]	4.58
EDLTAKRKRMKMDKTCSKKKNKSK [T19K]	5.17
EDLTAKRKRMKMDKTCSKEKNKSK [T19E]	5.74
EDLTAKRKRMKMDKTCSKYKNKSK [T19Y]	4.75
EDLTAKRKRMKMDKTCSKCKNKSK [T19C]	4.99
EDLTAKRKRMKMDKTCSKQKNKSK [T19Q]	5.08
EDLTAKRKRMKMDKTCSKPKNKSK [T19P]	4.89
EDLTAKRKRMKMDKTCSKGKNKSK [T19G]	4.94
EDLTAKRKRMKMDKTCSKDKNKSK [T19D]	4.97
EDLTAKRKRMKMDKTCSKAKNKSK [T19A]	5.16
EDLTAKRKRMKMDKTCSKRKNKSK [T19R]	5.26
EDLTAKRKRMKMDKTCSKIKNKSK [T19I]	4.9
EDLTAKRKRMKMDKTCSKLKNKSK [T19L]	4.94
EDLTAKRKRMKMDKTCSKVKNKSK [T19V]	4.7
EDLTAKRKRMKMDKTCSKNKNKSK [T19N]	5.1
EDLTAKRKRMKMDKTCSKSKNKSK [T19S]	5.62
EDLTAKRKRMKMDKTCSKHKNKSK [T19H]	5.02
EDLTAKRKRMKMDKTCSKMKNKSK [T19M]	5.15
EDLTAKRKRMKMDKTCSKTKNKLK [S23L]	4.76
EDLTAKRKRMKMDKTCSKTKNKTK [S23T]	5.31
EDLTAKRKRMKMDKTCSKTKNKAK [S23A]	5.7
EDLTAKRKRMKMDKTCSKTKNKGK [S23G]	5.07
EDLTAKRKRMKMDKTCSKTKNKRK [S23R]	5.24
EDLTAKRKRMKMDKTCSKTKNKIK [S23I]	4.78
EDLTAKRKRMKMDKTCSKTKNKHK [S23H]	4.53

Variant	protein stability index
EDLTAKRKRMKMDKTCSKTKNKYK [S23Y]	5.07
EDLTAKRKRMKMDKTCSKTKNKKK [S23K]	5.06
EDLTAKRKRMKMDKTCSKTKNKPK [S23P]	5.54
EDLTAKRKRMKMDKTCSKTKNKCK [S23C]	5.32
EDLTAKRKRMKMDKTCSKTKNKMK [S23M]	3.93
EDLTAKRKRMKMDKTCSKTKNKVK [S23V]	5.27
EDLTAKRKRMKMDKTCSKTKNKQK [S23Q]	5.1
EDLTAKRKRMKMDKTCSKTKNKFK [S23F]	4.6
EDLTAKRKRMKMDKTCSKTKNKDK [S23D]	5.36
EDLTAKRKRMKMDKTCSKTKNKNK [S23N]	5.12
EDLTAKRKRMKMDKTCSKTKNKEK [S23E]	5.52
EDLTAKRKRMKMDKTCSKTKNKWK [S23W]	4.47
EDLTAKRKRMKMDKTCSSTKNKSK [K18S]	4.78
EDLTAKRKRMKMDKTCSITKNKSK [K18I]	4.9
EDLTAKRKRMKMDKTCSTTKNKSK [K18T]	4.89
EDLTAKRKRMKMDKTCSRTKNKSK [K18R]	4.81
EDLTAKRKRMKMDKTCSPTKNKSK [K18P]	5.87
EDLTAKRKRMKMDKTCSLTKNKSK [K18L]	4.75
EDLTAKRKRMKMDKTCSYTKNKSK [K18Y]	4.59
EDLTAKRKRMKMDKTCSVTKNKSK [K18V]	4.75
EDLTAKRKRMKMDKTCSQTKNKSK [K18Q]	5.57
EDLTAKRKRMKMDKTCSMTKNKSK [K18M]	4.67
EDLTAKRKRMKMDKTCSNTKNKSK [K18N]	5.18
EDLTAKRKRMKMDKTCSWTKNKSK [K18W]	4.35

Variants of: B2
Assay: as above
Settings: c terminus: a fixed tail appended

Variant	protein stability index
FCECAGSHKRKRSSGSFCYCHPDS [Y3E]	2.5
FCFCAGSHKRKRSSGSFCYCHPDS [Y3F]	2.01
FCWCAGSHKRKRSSGSFCYCHPDS [Y3W]	2.88
FCGCAGSHKRKRSSGSFCYCHPDS [Y3G]	1.7
FCRCAGSHKRKRSSGSFCYCHPDS [Y3R]	2.3
FCCCAGSHKRKRSSGSFCYCHPDS [Y3C]	1.75
FCTCAGSHKRKRSSGSFCYCHPDS [Y3T]	2.99
FCPCAGSHKRKRSSGSFCYCHPDS [Y3P]	1.76
FCDCAGSHKRKRSSGSFCYCHPDS [Y3D]	2.2
FCSCAGSHKRKRSSGSFCYCHPDS [Y3S]	2.25
FCICAGSHKRKRSSGSFCYCHPDS [Y3I]	2.46
FCLCAGSHKRKRSSGSFCYCHPDS [Y3L]	2.96
FCACAGSHKRKRSSGSFCYCHPDS [Y3A]	2.37
FCVCAGSHKRKRSSGSFCYCHPDS [Y3V]	2.07
FCHCAGSHKRKRSSGSFCYCHPDS [Y3H]	1.81
FCNCAGSHKRKRSSGSFCYCHPDS [Y3N]	2.67
FCMCAGSHKRKRSSGSFCYCHPDS [Y3M]	2.02
FCKCAGSHKRKRSSGSFCYCHPDS [Y3K]	2.82
FCQCAGSHKRKRSSGSFCYCHPDS [Y3Q]	2.89
FCYDAGSHKRKRSSGSFCYCHPDS [C4D]	1.74
FCYKAGSHKRKRSSGSFCYCHPDS [C4K]	2.07
FCYHAGSHKRKRSSGSFCYCHPDS [C4H]	1.35

Variant	protein stability index
FCYEAGSHKRKRSSGSFCYCHPDS [C4E]	2.01
FCYIAGSHKRKRSSGSFCYCHPDS [C4I]	1.56
FCYAAGSHKRKRSSGSFCYCHPDS [C4A]	1.29
FCYFAGSHKRKRSSGSFCYCHPDS [C4F]	1.65
FCYLAGSHKRKRSSGSFCYCHPDS [C4L]	2.81
FCYGAGSHKRKRSSGSFCYCHPDS [C4G]	1.7
FKYCAGSHKRKRSSGSFCYCHPDS [C2K]	2.06
FTYCAGSHKRKRSSGSFCYCHPDS [C2T]	2.22
FRYCAGSHKRKRSSGSFCYCHPDS [C2R]	3.48
FMYCAGSHKRKRSSGSFCYCHPDS [C2M]	1.51
FQYCAGSHKRKRSSGSFCYCHPDS [C2Q]	3.31
FPYCAGSHKRKRSSGSFCYCHPDS [C2P]	1.53
FGYCAGSHKRKRSSGSFCYCHPDS [C2G]	2.7
FWYCAGSHKRKRSSGSFCYCHPDS [C2W]	1.79
FDYCAGSHKRKRSSGSFCYCHPDS [C2D]	2.79
FSYCAGSHKRKRSSGSFCYCHPDS [C2S]	2.25
FIYCAGSHKRKRSSGSFCYCHPDS [C2I]	1.94
FLYCAGSHKRKRSSGSFCYCHPDS [C2L]	1.79
FAYCAGSHKRKRSSGSFCYCHPDS [C2A]	2.76
FNYCAGSHKRKRSSGSFCYCHPDS [C2N]	1.27
FEYCAGSHKRKRSSGSFCYCHPDS [C2E]	2.05
FYYCAGSHKRKRSSGSFCYCHPDS [C2Y]	2.03

Variant	protein stability index
FFYCAGSHKRKRSSGSFCYCHPDS [C2F]	2.25
FHYCAGSHKRKRSSGSFCYCHPDS [C2H]	1.81
WCYCAGSHKRKRSSGSFCYCHPDS [F1W]	1.91
DCYCAGSHKRKRSSGSFCYCHPDS [F1D]	4.2
ACYCAGSHKRKRSSGSFCYCHPDS [F1A]	4.19
ICYCAGSHKRKRSSGSFCYCHPDS [F1I]	3.79
HCYCAGSHKRKRSSGSFCYCHPDS [F1H]	3.17
SCYCAGSHKRKRSSGSFCYCHPDS [F1S]	3.78
CCYCAGSHKRKRSSGSFCYCHPDS [F1C]	4.1
NCYCAGSHKRKRSSGSFCYCHPDS [F1N]	3.81
ECYCAGSHKRKRSSGSFCYCHPDS [F1E]	4.31
PCYCAGSHKRKRSSGSFCYCHPDS [F1P]	4.21
LCYCAGSHKRKRSSGSFCYCHPDS [F1L]	2.8
MCYCAGSHKRKRSSGSFCYCHPDS [F1M]	3.46
YCYCAGSHKRKRSSGSFCYCHPDS [F1Y]	1.55
RCYCAGSHKRKRSSGSFCYCHPDS [F1R]	3.85
KCYCAGSHKRKRSSGSFCYCHPDS [F1K]	3.78
TCYCAGSHKRKRSSGSFCYCHPDS [F1T]	3.34
VCYCAGSHKRKRSSGSFCYCHPDS [F1V]	3.65
QCYCAGSHKRKRSSGSFCYCHPDS [F1Q]	3.82

— the supplement of paper PMC10567573
